{"source": "patent US9518995B2", "about": "“FKBP52-Tau interaction as a novel therapeutical target for treating the neurological disorders involving Tau dysfunction” (Institut National de la Sante et de la Recherche Medicale …, priority 2009, dated 2016)", "key": {"H7C2 cells [1]": {"tested_on": "H7C2 cells", "assay": "Quantitation of neurite outgrowth", "assay_type": "cell-based, rat", "settings": "50 nM NGF and Dox, compared to H7C2 not treated with Dox", "experimental": "Cell culture: PC12 cells and H7C2 cells were grown in DMEM containing 10% (v/v) horse serum and 5% (v/v) FBS (Invitrogen) at 37° C. in 90% O2/10% CO2. The differentiated neuronal phenotype of cells grown on plastic dishes coated with 10 μg/ml poly(L)-lysine (Sigma), was induced by adding nerve growth factors (NGF) (Invitrogen) for 5 days. Primary cultures from cerebral cortex of embryonic day 17rat foetuses were carried out. Dissociated cells were plated (50,000 cells per ml) on glass coverslips coated with poly(L-ornithine) and cultured in a defined medium in 95% O2/5% CO2 at 37° C. Quantitation of neurite outgrowth: Random field photographs of PC12 and H7C2 cells, in each of three wells, were analyzed with Neuron J software. The average neurite length was determined by measuring the longest neurites of at least 200 cells randomly selected."}, "H7C2 cells [2]": {"tested_on": "H7C2 cells", "assay": "FKBP52 induction in H7C2 cells (Western blot)", "assay_type": "cell-based, rat", "settings": "after 5 days of Dox treatment", "experimental": "Generation of H7C2 cells: The cDNA encoding rabbit FKBP52 was inserted into the HindIII and AccI restriction sites of the pTRE2 vector (Clontech) in order to give pTRE2-FKBP52. Transfection of 100 μg of pTR2-FKBP52 and 10 μg of pTK-hygromicin was carried out in a commercially available PC12 Tet-on cell line (Clontech) that expresses the reverse tetracycline controlled transactivator, using Lipofectamine™ (Invitrogen). Stably transfected cells were selected with 100 μg/ml hygromycin and screened individually. Cell culture: PC12 cells and H7C2 cells were grown in DMEM containing 10% (v/v) horse serum and 5% (v/v) FBS (Invitrogen) at 37° C. in 90% […]/10% CO2. The differentiated neuronal phenotype of cells grown on plastic dishes coated with 10 μg/ml poly(L)-lysine (Sigma), was induced by adding nerve growth factors (NGF) (Invitrogen) for 5 days. Primary cultures from cerebral cortex of embryonic day 17rat foetuses were carried out. Dissociated cells were plated (50,000 cells per ml) on glass coverslips coated with poly(L-ornithine) and cultured in a defined medium in 95% O2/5% CO2 at 37° C."}, "recombinant Tau (hT40)": {"molecular_target": "T1, recombinant Tau (hT40) (Homo sapiens, UniProt P10636)", "T1 construct": "made in house; host or cells: E. coli", "T1 sequence (P10636 1-441 isoform P10636-8)": "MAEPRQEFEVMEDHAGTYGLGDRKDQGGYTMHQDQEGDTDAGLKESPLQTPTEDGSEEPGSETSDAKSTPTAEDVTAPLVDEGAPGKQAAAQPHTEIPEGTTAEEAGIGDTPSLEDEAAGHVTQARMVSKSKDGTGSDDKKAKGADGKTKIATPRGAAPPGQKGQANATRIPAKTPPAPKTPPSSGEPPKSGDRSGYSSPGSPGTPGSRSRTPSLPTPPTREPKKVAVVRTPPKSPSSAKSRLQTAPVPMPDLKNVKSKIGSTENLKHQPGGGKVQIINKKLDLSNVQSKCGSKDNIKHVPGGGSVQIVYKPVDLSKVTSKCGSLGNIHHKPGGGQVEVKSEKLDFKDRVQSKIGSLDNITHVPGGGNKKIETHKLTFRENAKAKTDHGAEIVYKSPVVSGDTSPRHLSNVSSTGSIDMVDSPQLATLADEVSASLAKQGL", "assay": "Dot blot assay, FKBP52 captured by spotted recombinant Tau", "assay_type": "binding", "experimental": "(§1) Dot blot assay: 100 μl of buffer A containing different amounts of hT40 were applied to a nitrocellulose membrane, blocked with 5% non-fat milk in phosphate-buffered saline (PBS) containing 0.1% Tween 20 (PBS-T) at room temperature, washed with PBS-T and buffer A, followed by 2 h incubation at room temperature with 100 μl of buffer A containing […] recombinant FKBP52. The membranes were washed with buffer IP (50 mM Tris (pH 7.5)/150 mM NaCl/2 mM MgCl2/0.1% Brij97 (Sigma)/10% glycerol/protease inhibitors) and with PBS-T. After blocking with milk in PBS-T, the membranes were incubated with anti-FKBP52 761 antibody. […] Quantitation was performed with Quantity-one software using Chemidoc XRS fitted with a 16 bit CCD camera (Biorad)."}, "[3]": {"molecular_target": "T2, HP-Tau (hyperphosphorylated recombinant hT40) (Homo sapiens, UniProt P10636)", "T2 construct": "made in house; host or cells: E. coli; then phosphorylated in vitro with adult rat brain cytosol in the presence of okadaic acid", "T2 sequence (P10636 1-441 isoform P10636-8)": "as above", "assay": "Dot blot assay, FKBP52 captured by spotted HP-Tau", "assay_type": "binding", "settings": "2.2 μg HP-Tau spotted; 0.5 μg FKBP52", "experimental": "(§2) Phosphorylation and hyperphosphorylation of recombinant Tau: Rat brain extract was used as the source of kinase activity, as described (18). Briefly, recombinant hT40 was incubated with cytosol of adult rat brain, in the presence or absence of okadaic acid, to give HP-Tau (hyperphosphorylated-Tau) and P-Tau (phosphorylated-Tau), respectively.\nas §1"}, "[4]": {"molecular_target": "T3, P-Tau (phosphorylated recombinant hT40) (Homo sapiens, UniProt P10636)", "T3 construct": "made in house; host or cells: E. coli; then phosphorylated in vitro with adult rat brain cytosol without okadaic acid", "T3 sequence (P10636 1-441 isoform P10636-8)": "as above", "assay": "Dot blot assay, FKBP52 captured by spotted P-Tau", "assay_type": "binding", "settings": "same amount (2.2 μg) P-Tau as bait; 0.5 μg FKBP52", "experimental": "as §2, §1"}, "[5]": {"molecular_target": "T4, tubulin polymerization induced by recombinant human Tau isoforms (Homo sapiens, UniProt P10636)", "T4 construct": "made in house; host or cells: Tau: E. coli; tubulin: adult Sprague-Dawley rat brain", "T4 sequence (P10636 2-441 isoform P10636-8)": "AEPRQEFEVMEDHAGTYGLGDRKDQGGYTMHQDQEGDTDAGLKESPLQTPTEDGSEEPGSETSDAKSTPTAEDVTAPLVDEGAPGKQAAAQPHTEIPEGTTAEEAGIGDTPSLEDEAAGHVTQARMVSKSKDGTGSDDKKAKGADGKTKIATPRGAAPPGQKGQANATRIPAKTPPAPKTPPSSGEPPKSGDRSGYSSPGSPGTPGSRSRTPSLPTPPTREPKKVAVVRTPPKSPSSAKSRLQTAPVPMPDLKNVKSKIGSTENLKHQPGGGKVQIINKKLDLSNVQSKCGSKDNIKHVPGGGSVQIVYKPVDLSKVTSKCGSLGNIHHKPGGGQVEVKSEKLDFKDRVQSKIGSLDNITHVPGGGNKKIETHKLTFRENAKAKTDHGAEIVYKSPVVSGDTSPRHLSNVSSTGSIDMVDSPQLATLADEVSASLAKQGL", "assay": "Microtubule assembly assay (tubulin polymerization induced by recombinant Tau isoforms)", "assay_type": "biochemical, rat", "settings": "tubulin 1 mg/ml, 1.7 μM Tau isoforms, 3.5 μM protein, turbidity at 345 nm", "experimental": "Preparation of Tubulin and microtubule assembly assay: Male adult Sprague-Dawley rats (body weight ˜250 g) were obtained from Janvier (Le Genest-St.-Isle, France). They were killed by decapitation, according to institutional guidelines, and whole brains were used immediately to prepare tubulin as described (9). Microtubule assembly assays were performed as in (9).\nProtein purification and Overexpression of different Tau isoforms and FKBP52 protein: The six isoforms of human brain Tau were expressed in E. coli from clones hT40, hT39, hT37, hT34, hT24, hT23 and purified as described (28). Full length FKBP52 was affinity purified as in (23). For the Tubulin polymerization assay, FKBP52 bound to glutathione-Sepharose beads (GE Healthcare) were cleaved overnight at 4° C. with 2 units of thrombin (GE Healthcare) and dialyzed against buffer L (0.1 M Mes, 1 mM EGTA, 1 mM MgCL2, 0.1 mM EDTA) with 10% glycerol, and complemented before use to 1 mM GTP and 1 mM DTT and 10 μM PPACK (a potent irreversible inhibitor of thrombin) (Biomol)."}, "[6]": {"molecular_target": "T5, recombinant Tau protein (longest isoform) (Homo sapiens, UniProt P10636)", "T5 construct": "made in house", "T5 sequence (P10636 1-441 isoform P10636-8)": "as the sequence (P10636 1-441 isoform P10636-8) above", "assay": "Sedimentation assay of Tau polymerization in oxidative conditions", "assay_type": "biochemical", "settings": "Tau 0.5 mg/ml", "experimental": "To investigate the effect of FKBP52 on Tau oligomerization we monitored by sedimentation assay the ability of recombinant Tau protein (here using the longest isoform) to polymerise in oxidative conditions in presence or absence of recombinant FKBP52. After dialysis of Tau (0.5 mg/ml) overnight at 4° C. in Tris 10 mM pH7.4 and centrifugation at 14000 rpm, quantitative western blotting was used to monitor the polymerization of Tau protein. […] This experiment means that Tau in oxidative conditions self polymerise and confirms, as already reported, the importance of cysteines in first step of Tau oligomerization process (Schweers et al 1995)."}}}
{"molecule": "C[C@H]1c2cccc(O)c2C(=O)C2=C(O)[C@]3(O)C(=O)C(C(N)=O)=C(O)[C@@H](N(C)C)[C@@H]3[C@@H](O)[C@@H]21", "note": "[Dox, doxycycline]", "values": [{"measurement": "decrease in neurite length", "setting": "H7C2 cells [1]", "result": 40, "unit": "%"}, {"measurement": "FKBP52 induction", "setting": "H7C2 cells [2]", "result": "about 4 fold"}]}
{"molecule": "FKBP52: purified recombinant full length immunophilin FKBP52 (FK506-Binding Protein), cleaved from GST with thrombin (protein, UniProt Q02790 1-459, looked up, full-length) MTAEEMKATESGAQSAPLPMEGVDISPKQDEGVLKVIKREGTGTEMPMIGDRVFVHYTGWLLDGTKFDSSLDRKDKFSFDLGKGEVIKAWDIAIATMKVGEVCHITCKPEYAYGSAGSPPKIPPNATLVFEVELFEFKGEDLTEEEDGGIIRRIQTRGEGYAKPNEGAIVEVALEGYYKDKLFDQRELRFEIGEGENLDLPYGLERAIQRMEKGEHSIVYLKPSYAFGSVGKEKFQIPPNAELKYELHLKSFEKAKESWEMNSEEKLEQSTIVKERGTVYFKEGKYKQALLQYKKIVSWLEYESSFSNEEAQKAQALRLASHLNLAMCHLKLQAFSAAIESCNKALELDSNNEKGLFRRGEAHLAVNDFELARADFQKVLQLYPNNKAAKTQLAVCQQRIRRQLAREKKLYANMFERLAEEENKAKAEASSGDHPTDTEMKEEQKSNTAGSQSQVETEA", "values": [{"measurement": "FKBP52 retained by hT40 in the presence of cytosolic proteins", "setting": "recombinant Tau (hT40); 2.2 μg hT40 with cytosol added just prior to spotting", "result": 6.6, "unit": "%"}, {"measurement": "FKBP52 retained by hT40", "setting": "recombinant Tau (hT40); 2.2 μg non phosphorylated hT40", "result": 3.5, "unit": "%"}, {"measurement": "retention by spotted Tau", "setting": "recombinant Tau (hT40); different amounts of hT40 spotted, GST spot as control", "result": "retained in a dose dependent manner"}, {"measurement": "FKBP52 retained by HP-Tau", "setting": "[3]", "result": 73, "unit": "%"}, {"measurement": "FKBP52 captured by P-Tau", "setting": "[4]", "result": 41, "unit": "%"}, {"measurement": "effect on microtubule formation induced by Tau", "setting": "[5]", "result": "formation of microtubules was prevented"}, {"measurement": "Tau polymers in pellet", "setting": "[6]; FKBP52 at 0.1 or 0.25 mg/ml", "result": "increasing Tau polymers in pellet"}, {"measurement": "Tau polymers in pellet", "setting": "[6]; equimolecular or two times quantities of FKBP52 versus Tau", "result": "prevent the presence of pelletable polymers of Tau"}, {"measurement": "Tau in pellet fraction", "setting": "[6]; oxidative medium, equimolecular coincubation", "result": "no detectable presence of Tau in pellet fraction"}]}
